{"source": "paper PMC6754446", "about": "“Regulation of the endosomal SNX27-retromer by OTULIN” (Nature Communications, 2019)", "binders": {"B1": {"name": "PSD95 PDZ2 (155-249) (domain or fragment, UniProt P78352 155-249, looked up)", "chain": "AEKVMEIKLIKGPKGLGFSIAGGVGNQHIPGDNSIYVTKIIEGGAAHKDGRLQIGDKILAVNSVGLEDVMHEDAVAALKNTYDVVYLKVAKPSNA", "notes": "PSD95, second PDZ domain, residues 155-249; The printed DNA (285 nt) fits 95 residues; source: E. coli, purified analogous to SNX27PDZ (pOPIN-S vector)"}, "B2": {"name": "SHANK3 PDZ domain (563-671) (domain or fragment)", "chain": "SDYVIDDKVAVLQKRDHEGFGFVLRGAKAETPIEEFTPTPAFPALQYLESVDVEGVAWRAGLRTGDFLIEVNGVNVVKVGHKQVVALIRQGGNRLVMKVVSVTRKPEED", "modifications": "Printed 563-671 follows the older 1731-aa SHANK3 numbering; offset +75 to the current 1806-aa entry (inferred by homology to the SHANK2 start, 8 residues before the annotated PDZ). The His6-SUMO tag …"}, "B3": {"name": "OTULIN C-terminal PDZbm peptide (aa 344–352) (peptide, UniProt Q96BN8 344-352, looked up)", "peptide": "VRVCEETSL", "notes": "OTULIN, human, aa 344–352; also called OTULIN PDZbm peptide"}, "B4": {"name": "OTULIN C-terminal PDZbm peptide (aa 344-352) (peptide)", "peptide": "Ac-VRVCEETSL", "notes": "OTULIN, human, C-terminal PDZbm peptide, aa 344-352; also called OTULIN PDZbm peptide"}, "B5": {"name": "Syntenin1 PDZ1 (108-196) (domain or fragment, UniProt Q9JI92 108-196, looked up)", "chain": "AEIKQGIREVILCKDQDGKIGLRLKSVDNGIFVQLVQANSPASLVGLRFGDQVLQINGENCAGWSSDKAHKVLKQAFGEKITMTIRDRP", "notes": "Syntenin-1, first PDZ domain, residues 108-196; The printed DNA (267 nt) fits 89 residues; source: E. coli, purified analogous to SNX27PDZ (pOPIN-S vector)"}, "B6": {"name": "SHANK2 PDZ domain (239-347) (domain or fragment)", "chain": "SDCIIEEKTVVLQKKDNEGFGFVLRGAKADTPIEEFTPTPAFPALQYLESVDEGGVAWQAGLRTGDFLIEVNNENVVKVGHRQVVNMIRQGGNHLVLKVVTVTRNLDPD", "modifications": "Printed 239-347 follows the older 1470-aa Q9UPX8 numbering; offset +379 to the current 1849-aa entry, so that the start falls on SDCIIEEKTV. The His6-SUMO tag was cleaved off."}, "B7": {"name": "RhoGEF PDZ domain (41-123) (domain or fragment, UniProt O15085 41-123, looked up)", "chain": "TGLVQRCVIIQKDQHGFGFTVSGDRIVLVQSVRPGGAAMKAGVKEGDRIIKVNGTMVTNSSHLEVVKLIKSGAYVALTLLGSS", "notes": "RhoGEF, PDZ domain, residues 41-123; The printed DNA (249 nt) fits 83 residues; source: E. coli, purified analogous to SNX27PDZ (pOPIN-S vector)"}, "B8": {"name": "NHERF1 PDZ2 (150-235) (domain or fragment, UniProt O14745 150-235, looked up)", "chain": "LRPRLCTMKKGPSGYGFNLHSDKSKPGQFIRSVDPDSPAEASGLRAQDRIVEVNGVCMEGKQHGDVVSAIRAGGDETKLLVVDRET", "notes": "The printed DNA (258 nt) fits 86 residues; source: E. coli, purified analogous to SNX27PDZ (pOPIN-S vector)"}, "B9": {"name": "LNX2 PDZ3 (465-560) (domain or fragment, UniProt Q8N448 465-560, looked up)", "chain": "QEKHITVKKEPHESLGMTVAGGRGSKSGELPIFVTSVPPHGCLARDGRIKRGDVLLNINGIDLTNLSHSEAVAMLKASAASPAVALKALEVQIVEE", "notes": "LNX2, third PDZ domain, residues 465-560; The printed DNA (288 nt) fits 96 residues; source: E. coli, purified analogous to SNX27PDZ (pOPIN-S vector)"}, "B10": {"name": "SHANK1 PDZ domain (654-763) (domain or fragment, UniProt Q9Y566 654-763, looked up)", "chain": "GSDYIIKEKTVLLQKKDSEGFGFVLRGAKAQTPIEEFTPTPAFPALQYLESVDEGGVAWRAGLRMGDFLIEVNGQNVVKVGHRQVVNMIRQGGNTLMVKVVMVTRHPDMD", "notes": "source: E. coli, purified analogous to SNX27PDZ (pOPIN-S vector)"}, "B11": {"name": "Syntenin1 PDZ1 (domain or fragment, UniProt O00560 114-193, looked up)", "chain": "EVILCKDQDGKIGLRLKSIDNGIFVQLVQANSPASLVGLRFGDQVLQINGENCAGWSSDKAHKVLKQAFGEKITMTIRDR", "notes": "Syntenin1, PDZ1; source: expressed and purified analogous to SNX27PDZ (E. coli Rosetta2 (DE3) pLacI); His6-SUMO cleaved with SUMO protease"}}, "conditions_in_all_cases": "both partners purified", "key": {"OTULINcat (aa 80-352) [1]": {"molecular_target": "T1, OTULINcat (aa 80-352) (human, UniProt Q96BN8 80-352)", "T1 sequence (Q96BN8 80-352)": "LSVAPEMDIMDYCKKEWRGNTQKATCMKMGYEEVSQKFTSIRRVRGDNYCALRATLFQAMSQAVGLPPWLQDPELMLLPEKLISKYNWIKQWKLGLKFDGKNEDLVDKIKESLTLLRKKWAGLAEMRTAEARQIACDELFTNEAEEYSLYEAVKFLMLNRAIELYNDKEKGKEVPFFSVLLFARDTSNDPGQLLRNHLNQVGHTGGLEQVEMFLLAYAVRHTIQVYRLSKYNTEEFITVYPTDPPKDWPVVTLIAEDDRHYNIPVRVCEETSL", "test": "ITC; PDZ variant (150-450 µM) in the syringe, OTULINcat variant (20-30 µM) in the cell; 25 °C; 20 mM HEPES pH 7.4, 200 mM NaCl, 2 mM TCEP; single-site binding model"}, "OTULINcat (aa 80-352) [2]": {"molecular_target": "T1, OTULINcat (aa 80-352)", "test": "ITC; SHANK1-3 PDZ in the syringe, OTULINcat in the cell; 30 °C; 20 mM HEPES pH 7.4, 200 mM NaCl, 2 mM TCEP; single-site binding model"}, "SNX27PDZ (aa 40–135)": {"molecular_target": "SNX27PDZ (aa 40–135) (human, UniProt Q96L92 40-135)", "test": "ITC; 25 °C, 20 mM HEPES pH 7.4, 200 mM NaCl, 2 mM TCEP; 20–30 µM OTULINcat variant in the cell, 150–450 µM PDZ variant in the syringe; single-site model"}, "[3]": {"molecular_target": "SNX27 PDZ domain (aa 40-135) (human, UniProt Q96L92 40-135)", "test": "ITC; SNX27PDZ in the cell; OTULINcat, OTULIN PDZbm peptide or VPS26A in the syringe; 25 °C; 20 mM HEPES pH 7.4, 200 mM NaCl, 2 mM TCEP; single-site binding model"}, "OTULINcat (aa 80–352)": {"molecular_target": "T2, OTULINcat (aa 80–352) (human, UniProt Q96BN8 80-352)", "T2 construct": "OTULIN, human, aa 80–352; His6-3C construct in pOPIN-B; tag cleaved with 3C protease; source: E. coli Rosetta2 (DE3) pLacI, purified (HisTrap, anion exchange, SEC)", "T2 sequence (Q96BN8 80-352)": "as above", "test": "ITC; 25 °C, 20 mM HEPES pH 7.4, 200 mM NaCl, 2 mM TCEP; 20–30 µM OTULINcat variant in the cell, 150–450 µM PDZ variant in the syringe; single-site model"}}, "note": "No end group written: not given here."}
{"binder": "B1", "values": [{"measurement": "Kd", "setting": "OTULINcat (aa 80-352) [1]", "result": 98.9, "unit": "µM"}, {"measurement": "stoichiometry N", "setting": "OTULINcat (aa 80-352) [1]", "result": 0.91}]}
{"binder": "B2", "values": [{"measurement": "Kd", "setting": "OTULINcat (aa 80-352) [2]", "result": 26.4, "unit": "µM"}, {"measurement": "stoichiometry N", "setting": "OTULINcat (aa 80-352) [2]", "result": 1}]}
{"binder": "B3", "values": [{"measurement": "Kd", "setting": "SNX27PDZ (aa 40–135)", "result": 1.1, "unit": "µM"}]}
{"binder": "B4", "values": [{"measurement": "stoichiometry N", "setting": "[3]", "result": 1.07}]}
{"binder": "B5", "values": [{"measurement": "stoichiometry N", "setting": "OTULINcat (aa 80-352) [1]", "result": 0.38}]}
{"binder": "B6", "values": [{"measurement": "Kd", "setting": "OTULINcat (aa 80-352) [2]", "result": 23.9, "unit": "µM"}, {"measurement": "stoichiometry N", "setting": "OTULINcat (aa 80-352) [2]", "result": 0.99}]}
{"binder": "B7", "values": [{"measurement": "Kd", "setting": "OTULINcat (aa 80-352) [1]", "result": 38.3, "unit": "µM"}, {"measurement": "stoichiometry N", "setting": "OTULINcat (aa 80-352) [1]", "result": 0.96}]}
{"binder": "B8", "values": [{"measurement": "Kd", "setting": "OTULINcat (aa 80-352) [1]", "result": 35.6, "unit": "µM"}, {"measurement": "stoichiometry N", "setting": "OTULINcat (aa 80-352) [1]", "result": 1.14}]}
{"binder": "B9", "values": [{"measurement": "Kd", "setting": "OTULINcat (aa 80-352) [1]", "result": 57.1, "unit": "µM"}, {"measurement": "stoichiometry N", "setting": "OTULINcat (aa 80-352) [1]", "result": 0.87}]}
{"binder": "B10", "values": [{"measurement": "Kd", "setting": "OTULINcat (aa 80-352) [2]", "result": 22.6, "unit": "µM"}, {"measurement": "stoichiometry N", "setting": "OTULINcat (aa 80-352) [2]", "result": 1}]}
{"binder": "B11", "values": [{"measurement": "Kd", "setting": "OTULINcat (aa 80–352)", "result": 1710, "unit": "µM"}]}
